This note sets out measurements from patent publication US20250026813A1 (published 2025).

Changes are numbered by the printed parent chain.

This test deals with SARS-CoV-2 spike protein receptor binding domain (isolated RBD) (SARS-CoV-2, UniProt P0DTC2 319-541).

B1: IMPI-006 (antibody, V domains shown)
VH: QLQLQESGPGLVKPSETLSLTCTVSGGSISNSNYYWGWIRQPPGKGLEWIGSIYYSGRTYYNPSLKSRVTISVDTSKNQFSLKLSSVTAADTAVYYCARMGLLWFGEFYGMDVWGQGTTVTVSS
VL: DIQMTQSPSSLSASVGDRVTITCRASQGISSWLAWYQQKPEKAPKSLIYDASSLQRGVPSRFSGSGSGTDFTLTISSLQPEDFASYYCQQYNSYPLTFGGGTRVEIK
As for B1, binding was put at a Kd of 0.88 nM; the off-rate constant (koff) (usually the first-order rate constant of dissociation) was determined as 8.19 s⁻¹; the kon (in general, the second-order rate constant of association) came to 9.3e+09 M⁻¹ s⁻¹.

B2: IMPI-029 (antibody, V domains shown)
VH: EVQLVESGGGLIQPGGSLRLSCAASGVTVSSNYMNWVRQAPGKGLEWVSVIYSGGSTYYADSVKGRFTISRDNSKNTLFLQMNSLRAEDSAVYYCARDLGPYGVDVWGQGTTVTVSS
VL: DIQLTQSPSFLSASVGDRVTITCWASQGISSYLAWYQQKPGKAPKLLIYAASTLQSGVPSRFSGSGSGTEFTLTISSLQPEDFATYYCQELNSYPLTFGQGTRLEIK
With B2, the dissociation constant (Kd) (commonly the equilibrium constant for the complex coming apart) stood at 0.195 nM, the dissociation rate constant (koff) amounted to 0.000157 s⁻¹ and the kon is 808000 M⁻¹ s⁻¹.

B3: IMPI-047 (antibody, V domains shown)
VH: B2 VH with V27F, F79Y, A87T, S90T, G100V, P101A, V104M
VL: B2 VL with L46V, E90L, Y94N, Q100G, R103K, L104V
B3 gave an equilibrium dissociation constant (Kd) of 2.38 nM, a koff of 0.000878 s⁻¹ and a kon of 368000 M⁻¹ s⁻¹.

B4: IMPI-021 (antibody, V domains shown)
VH: B2 VH with N35S, Y58F, F79Y, S90T, G100S, P101Y, V104M
VL: B2 VL with R61K, E90Q, L96C, T97S, R103K
B4 registered a Kd of 8.08 nM, a dissociation rate constant (koff) of 0.00443 s⁻¹ and a kon of 548000 M⁻¹ s⁻¹.

B5: IMPI-060 (antibody, V domains shown)
VH: B2 VH with N35S, Y58F, F79Y, S90T, G100S, P101Y, V104M
VL: B2 VL with R61K, E90Q, L96S, T97S, R103K
B5 displayed a Kd of 59.2 nM, a dissociation rate constant (koff) of 0.0277 s⁻¹ and an on-rate (kon) of 469000 M⁻¹ s⁻¹.

B6: IMPI-056 (antibody, V domains shown)
VH: B2 VH with V27L, G44K, Y58F, K64R
VL: B2 VL with E90Q
Take B6: binding was put at a Kd of 0.44 nM.

B7: IMPI-005 (antibody, V domains shown)
VH: B2 VH with V27F
VL: B2 VL
B7 had an equilibrium dissociation constant (Kd) of 3.09 nM, a koff of 0.0071 s⁻¹ and an on-rate (kon) of 2.3e+06 M⁻¹ s⁻¹.

B8: IMPI-054 (antibody, V domains shown)
VH: EVQLVESGGGLIQPGGSLRLSCAASGLTVSSNYMSWVRQAPGKGLEWVSIIYSGGSTYYADSVKGRFTISRDNSKNTLYLQMNSLRAEDTAVYYCARLGGYYYYGMDVWGQGTTVTVSS
VL: DIQMTQSPSSLSASVGERVTITCQASQDIRNYLNWYQKKPGKAPKLLIYDSSNLETGVPSRFSGSGSGTDFTFTISSLQPEDIATYYCQQYDNLPITFGQGTRLEIK
Molecule B8 gave a dissociation constant Kd of 1.11 nM, a dissociation rate constant (koff) of 0.000627 s⁻¹ and an on-rate (kon) of 564000 M⁻¹ s⁻¹.

B9: IMPI-042 (antibody, V domains shown)
VH: B8 VH
VL: B8 VL with S65G
For B9, the dissociation constant Kd came to 1.15 nM, the off-rate constant (koff) is 0.000617 s⁻¹ and the kon worked out at 536000 M⁻¹ s⁻¹.

B10: IMPI-055 (antibody, V domains shown)
VH: QVQLVQSGAEVKKPGASVKVSCKASGYTFTSYDINWVRQATGQGLEWMGWMNPNSGNTGYAQKFQGRVTMTRDTSINTAYMELSSLRSEDTAVYFCARGGRYCSDVTCYSGEPFDYWGQGTLVTVSS
VL: EIMLTQSPDFQSVTPKEKVTITCRASQSIGSSLHWYQQKPDQSPKLLIKFASQSISGVPSRFSGSGSGTDFTLTINSLEAEDAAAYYCHQSSSLPHTFGPGTKVEIK
As for B10, the dissociation constant (Kd) was determined as 0.959 nM, the koff was 0.00264 s⁻¹ and the on-rate constant (kon) turned out to be 2.75e+06 M⁻¹ s⁻¹.
